Article PMC9061753, “Mre11-Rad50 oligomerization promotes DNA double-strand break repair” (Nature Communications, 2022)

B1: 100 bp EMSA (BIO100C/BIO100) (dsDNA)
DNA 1: GATGCAGGAGGCTGCTACGACCATGGCAGAAGATTATGAGGTGGAGTACGCGCCCGGGGAGCCCAAGGGCACGCCCTGGCACCCGCACCGCGGCACTTAC
DNA 2: GTAAGTGCCGCGGTGCGGGTGCCAGGGCGTGCCCTTGGGCTCCCCGGGCGCGTACTCCACCTCATAATCTTCTGCCATGGTCGTAGCAGCCTCCTGCATC
modifications: biotin position marked in table
B2: 197 bp EMSA (197mer) (dsDNA)
DNA 1: GCTTCGTATGTTTCTCCTGCTTATCACCTTCTTGAAGGCTTCCCATTCATTCAGGAACCGCCTTCTGGTGATTTGCAAGAACGCGTACTTATTCGCCACCATGATTATGACCAGTGTTTCCAGTCCGTTCAGTTGTTGCAGTGGAATAGTCAGGTTAAATTTAATGTGACCGTTTATCGCAATCTGCCGACCACTCG
DNA 2: GCGAGTGGTCGGCAGATTGCGATAAACGGTCACATTAAATTTAACCTGACTATTCCACTGCAACAACTGAACGGACTGGAAACACTGGTCATAATCATGGTGGCGAATAAGTACGCGTTCTTGCAAATCACCAGAAGGCGGTTCCTGAATGAATGGGAAGCCTTCAAGAAGGTGATAAGCAGGAGAAACATACGAAG

Assays:
[1] = target: T1, Mre11-Rad50 (MRwt) (S. cerevisiae, UniProt P32829;P12753 1-692;1-1312); test: EMSA; ATPgS, 5 mM Mg2+, 30 mM NaCl; mean of the 2 visible of 3 replicates (6.248, 7.406); apparent; Oligo EMSA: 25 mM Tris acetate pH 7.5, 1 mM DTT, 0.25 mg/ml BSA, 5 mM Mg acetate, 1 mM ATPgS, 30 mM NaCl, 30 C 15 min, 100 nM bp DNA; plasmid EMSA: 80 mM KCl, plus 1 mM MnCl2, 30 C 1 h; mass photometry 25 mM KCl; settings: protein: recombinant; tags: Mre11-6xHis; Rad50 untagged; chain copies: 2;2; label: 3'-32P on BIO100C; blunt before 3' labeling
T1 sequence (P32829 whole entry, chain 1 of 2): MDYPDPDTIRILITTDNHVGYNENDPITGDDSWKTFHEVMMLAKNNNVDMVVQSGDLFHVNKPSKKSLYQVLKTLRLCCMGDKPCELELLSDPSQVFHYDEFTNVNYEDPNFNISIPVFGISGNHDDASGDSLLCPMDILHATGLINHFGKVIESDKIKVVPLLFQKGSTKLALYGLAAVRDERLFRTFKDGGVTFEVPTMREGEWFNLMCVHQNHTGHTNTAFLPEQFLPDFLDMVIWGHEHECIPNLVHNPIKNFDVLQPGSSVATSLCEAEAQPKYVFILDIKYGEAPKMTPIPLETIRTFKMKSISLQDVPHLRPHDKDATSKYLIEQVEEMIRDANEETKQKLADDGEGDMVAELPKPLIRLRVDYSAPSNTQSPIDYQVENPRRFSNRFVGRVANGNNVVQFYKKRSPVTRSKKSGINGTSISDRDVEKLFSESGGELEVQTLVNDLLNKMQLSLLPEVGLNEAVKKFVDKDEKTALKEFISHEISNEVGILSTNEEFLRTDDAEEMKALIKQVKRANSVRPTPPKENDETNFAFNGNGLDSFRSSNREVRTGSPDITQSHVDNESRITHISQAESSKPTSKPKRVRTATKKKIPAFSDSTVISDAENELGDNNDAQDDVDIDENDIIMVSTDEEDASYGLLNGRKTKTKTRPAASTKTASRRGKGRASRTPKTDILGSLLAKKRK
T1 sequence (P12753 whole entry, chain 2 of 2): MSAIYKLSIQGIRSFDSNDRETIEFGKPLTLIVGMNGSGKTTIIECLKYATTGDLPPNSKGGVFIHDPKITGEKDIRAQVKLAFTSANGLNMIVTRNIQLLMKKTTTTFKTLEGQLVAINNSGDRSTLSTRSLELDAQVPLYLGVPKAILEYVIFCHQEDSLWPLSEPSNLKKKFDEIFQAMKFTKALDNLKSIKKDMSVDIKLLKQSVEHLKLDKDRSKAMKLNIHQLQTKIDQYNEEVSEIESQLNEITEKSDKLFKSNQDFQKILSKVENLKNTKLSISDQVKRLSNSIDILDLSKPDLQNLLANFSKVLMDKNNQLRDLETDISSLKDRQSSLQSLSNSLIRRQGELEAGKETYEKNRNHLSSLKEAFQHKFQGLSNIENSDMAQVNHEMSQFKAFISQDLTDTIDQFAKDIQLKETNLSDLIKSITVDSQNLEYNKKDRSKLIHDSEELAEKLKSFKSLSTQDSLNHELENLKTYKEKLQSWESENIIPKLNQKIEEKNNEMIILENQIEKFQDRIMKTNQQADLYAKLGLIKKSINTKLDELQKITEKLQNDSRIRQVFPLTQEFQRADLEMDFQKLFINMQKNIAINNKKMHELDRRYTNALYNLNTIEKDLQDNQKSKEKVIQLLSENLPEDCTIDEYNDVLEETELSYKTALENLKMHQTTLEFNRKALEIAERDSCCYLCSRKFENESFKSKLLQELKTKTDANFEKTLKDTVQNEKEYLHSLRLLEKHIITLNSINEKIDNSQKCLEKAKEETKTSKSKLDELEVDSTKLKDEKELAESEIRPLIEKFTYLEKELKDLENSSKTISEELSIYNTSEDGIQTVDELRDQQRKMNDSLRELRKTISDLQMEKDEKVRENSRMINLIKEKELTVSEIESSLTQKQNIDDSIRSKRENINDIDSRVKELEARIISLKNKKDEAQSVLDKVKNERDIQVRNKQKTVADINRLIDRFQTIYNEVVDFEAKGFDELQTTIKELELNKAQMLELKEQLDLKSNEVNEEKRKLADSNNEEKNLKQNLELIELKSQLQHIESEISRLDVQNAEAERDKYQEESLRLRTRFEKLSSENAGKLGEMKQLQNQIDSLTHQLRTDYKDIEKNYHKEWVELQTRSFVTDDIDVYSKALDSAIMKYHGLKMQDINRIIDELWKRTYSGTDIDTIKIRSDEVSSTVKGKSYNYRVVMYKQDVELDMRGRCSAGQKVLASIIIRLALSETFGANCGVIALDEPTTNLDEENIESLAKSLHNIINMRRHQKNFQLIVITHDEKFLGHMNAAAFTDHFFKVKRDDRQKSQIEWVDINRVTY

[2] = target: T1, Mre11-Rad50 (MRwt); test: EMSA; ATPgS, 5 mM Mg2+, 30 mM NaCl; mean of the 2 visible of 3 replicates (4.948, 4.099); apparent; Oligo EMSA: 25 mM Tris acetate pH 7.5, 1 mM DTT, 0.25 mg/ml BSA, 5 mM Mg acetate, 1 mM ATPgS, 30 mM NaCl, 30 C 15 min, 100 nM bp DNA; plasmid EMSA: 80 mM KCl, plus 1 mM MnCl2, 30 C 1 h; mass photometry 25 mM KCl; settings: protein: recombinant; tags: Mre11-6xHis; Rad50 untagged; chain copies: 2;2; label: 3'-32P on top strand; 1-nt 5' overhangs as printed

| Binder | Kd [1] | Kd [2] |
| --- | --- | --- |
| B1 | ~6.83 nM | – |
| B2 | – | ~4.52 nM |
